This note sets out measurements from the DeepSol protein solubility set.

The nature of this data set: soluble on expression in E. coli; label from the status in PepcDB or PDB records.
Turning to “MPVAPNPLLQANAIAKTSRSATVQADKPLQALGDKGDAFGQVMARQGRDKVTGQDDKVAQAKPKDKPDAAAGGKKDPAGKAAVADDGNKLPEEDSAQADTGVRDASLVAGQVTDAQPGAQLIQAQAEAVAPVLQAATAQTQVSAALPEEPSAEEAFDPDADPLANLPTLRLALEHSAQAKGGTSAHALDAAQAQGEEGQAAVNTLANLVEDTDGESAESGGKAFGALLEDGLKDTKSASSDTRIDDFANRLASLTQAATAKTANAVPATANPLHQPLPMNQNAWAEGLVNRVMYLSSQNLKSADIQLEPAELGRLDIRVNVAADQATQVTFISGHAGVRDALDSQVHRLRELFAQQGLAQPDVNVADQSRGQQQQQGQAQGSNLSGVAARRAEQGGAEAVDSARPLEQQVVVGDSAVDYYA”, the “soluble on expression in E. coli” value is “not soluble”.

For “MPVKKESNAELDLDWRCRDGSSLVASLQPKPDPQKTGNYRKAKVSTTVSIPTAKATGNAPKYLPPHLRNRQESENKEEDDESECNSDTEKHSVISDQFSDSVDETSVKKIRIHWRGRRWTRGIECIGVQVDSQITRYSKLDDKCVRKSNSGRETTQTGCISDFAFAEVARLLKTPEIELELFAVDVPPFIQGEPRESYFNAMEKTFNLENVTRVNAKRVRLIGLTISEMEAVLKWVSVENLVVIRVYSGKNSIDERGAIVIQNMLSIFPQLQVGSFHMIVSNPLGVAKTFDEIYSDRLVKTPIILKGLDEEPKFNMKITSCDIQVRRESKKKKVTQI”, the “soluble on expression in E. coli” value is given as “not soluble”.

In the case of “MPVKKVEKNILVLHGADKMFELVDKVEDYPHFLPWYSKTEVIGRSGNELKARLFMDYMHVRQSFATHNRNIPGREIRMELLEGPFKTLRGTWKFIDLGDDMCKIEFNLEYDFSNAVLSALISPVFNHLSTTLVEAFVKEADRRYA”, the “soluble on expression in E. coli” value is listed as “not soluble”.

Take “MPVQPPSKDTEEMEAEGDSAAEMNGEEEESEEERSGSQTESEEESSEMDDEDYERRRSECVSEMLDLEKQFSELKEKLFRERLSQLRLRLEEVGAERAPEYTEPLGGLQRSLKIRIQVAGIYKGFCLDVIRNKYECELQGAKQHLESEKLLLYDTLQGELQERIQRLEEDRQSLDLSSEWWDDKLHARGSSRSWDSLPPSKRKKAPLVSGPYIVYMLQEIDILEDWTAIKKARAAVSPQKRKSDGP”: the “soluble on expression in E. coli” value is recorded as “soluble”.

As for “MPYPIEEKLVIGVASSALFDLSVSDDIYQTQGVEAYRQHQEQNLDEPFPRGVALPFIRRFLSINKAFPDQLPVEVVLLSRNSPETGLRVFRSISHYQLDITRAAFMSGRSPYEYIPAFNASLFLSANEEDVQKAIDANYPAGRVLPTRIYDDEIDTELRVAFDFDGVIADDEAESVYKRNDNLDDFQEHERMHKSTPHSPGPLADLYRKLSRIRMLEDRKLAEDPTYQRILRIAIVTARNAPSHERVVTTLKDWGVSPDECFFLGGMDKPRVLSILKPHVFFDDQRTHLQSPAGNLPMVHVPFGVANRVRSPQAPDVKQDQLPISASSCMPLEHHHHHH”, the “soluble on expression in E. coli” value is recorded as “soluble”.

As to “MPYRRRQSTAPKSGAPKSVRSAAAGQSLDIDGIHLHLTRKPIKNLYLRIKPPSGRVEISAPMRMSESRIADFVKERHSWILAQQQRMAEAQRRSIMALNEGAGFENGGRGVAGASGHDGGVAGRPKTGDISRPGIGDAGPGQAGTNVQPYFDRSQIWTDERKRQAAAAINAALPQLLAKWGPVVGRQPTHITLRVMTSRWGSCTPRTGRIRLNLQLGLMEPQFLEYVLVHEMTHLWESGHGAGFQRRMTAYLPGWKTLRRDLNRRVVLLEHHHHHH”, the “soluble on expression in E. coli” value was “soluble”.

For the sequence “MQAAPQGGIYNYFHSLLPPLSLAPFLPRTPLPSTSLFCKGLKKERYKPRFRPRECHCSVENLHLGHEMQNSHRTICKSALQLLPPSWSDPFRRRDADFPPNSPSPARPSSENASNRAKEKVHLSPIIALCISHHTSQEKLFTQHLMNMPTGETHKSPPS”, the “soluble on expression in E. coli” value is “not soluble”.

For “MQAFRAPSLATIDDVCGTRADGYDGAPLRSIPDFAVIVPMHNEEASVETLVAEIVTACQPVGQFEIVVVDDASSDRTVNAVLSLGDRYPMLRLVRHDRQGGQSAAIHSGVQAARAPVICMLDGDGQNPPDNLPALLAPLLSATATSRLGLVAGQRVGRRDTLGKRLSSRFANGLRARILKDGTRDTGCGLKAFRRDAYLALPYFDHHHRYFPALFNRDGWQVAHVDVTHRARLHGNSHYTNIGRALVGIHDLIGVVWLLRRRKRSSWAETFKTETSPLEHHHHHH”, the “soluble on expression in E. coli” value is recorded as “soluble”.

As for “MQARKLAVDGAIEFTPRVFADDRGLLILPYQEEAFVEAHGGPLFRVAQTIHSMSKRGVVRGIHYTVTPPGTAKYVYCARGKAMDIVIDIRVGSPTFGQWDSVLMDQQDPRAVYLPVGVGHAFVALEDDTVFSYMASRSYVTQDELALSALDPALGLPIDIGVEPIVSDRDRVAITLAEAQRQGLLPDYTTSQEIERRLTAVPVST”, the “soluble on expression in E. coli” value is “soluble”.

As to “MQCHVKDEVLYIGKKEFEEPIKSEWVLEMQNTEKYKTIGPTFPDGTINWQCPCMAGGSLVAHRCGNFFRELYICMKSDDTRDPSEKCPNQFVNWAACMQNMSDERREQMRKAMTVDTEELKINPK”, the “soluble on expression in E. coli” value is reported as “not soluble”.

As for “MQDDPRYRVEVEVSPRFLAHQSTPEEGRYAFAYSIRIQNAGAVPARLIARHWKITDANGRTEQVDGEGVVGEQPRLRPGEAFHYTSGVLLETEQGQMQGYYDMVADDGTEFTAPIAAFVLSVPRTLHLEHHHHHH”, the “soluble on expression in E. coli” value is “soluble”.

With “MQDEVVLLDFWPSPFGMRVRIALAEKGIKYEYKEEDLRNKSPLLLQMNPVHKKIPVLIHNGKPICESLIAVQYIEEVWNDRNPLLPSDPYQRAQTRFWADYVDKKIYDLGRKIWTSKGEEKEAAKKEFIEALKLLEEQLGDKTYFGGDNLGFVDIALVPFYTWFKAYETFGTLNIESECPKFIAWAKRCLQKESVAKSLPDQQKVYEFIMDLRKKLGIE”, the “soluble on expression in E. coli” value is listed as “soluble”.

In the case of “MQDLKVISKHYAKALKNHTKSDLALLEEIVVGLKNATEAIRQHKLNQVLAHVSLKVKKEVVFEILEKITSIKACSVLKPVMEVVLKNNRLDMLELITEELSFDSKRTLEATLLVPEKLENNELEAVQQKLQARFNAPVEITQDTWSKKGVSLSVSSLDLEIGFSKEDILKKIEKQVIQSI”, the “soluble on expression in E. coli” value is “not soluble”.

As to “MQEKYNFGKVSSQHKNYSKIETMLRPKGFDKLDHYFRTELDIDLTDETIELLLNSVKAAFGKLFYGAEQRARWNGRDFIALADLNITKALEEHIKNFQKIEQDMGVDELLEYIAFIPPVEMNVGEDLKSEYRNIMGGLLLMHADVIKKATGERKPSREAMEFVAQIVDKVF”, the “soluble on expression in E. coli” value is given as “soluble”.

“MQFGIFTIGDVTTDPTTGVTPSEHDRINAMTQIALKAEEVGLDVFATGEHHNPPFVPSSPTTHLAYIAAQTKNIQLSTSTTLITTNDPVKIAEDYAFLQHLSGGRVDLMMGRGNTGPVYPWFGKDIRKGIPLAVENYHLLRKLWREPVVNWKGEFRTPLQNYTSTPAPLGDVPPFVWHGSIRSVQIAEQAAFYGDGFFHNNIFWNKEHTAQMVNIYRQRFEKYGHGRADQAIVGLGGQVFIGETEAEAKKFFRPYFDNAPVYGHGPSLEEFTELTPLTVGTVEQVIERTMQFADWVGDYQRQLFLIDHAGLPLEVVLNQIEILGTQVVPELRRRMEKRRPDHVPSDPPSHSFLKAHPEHPHFLVEPSKTSAQ”: the “soluble on expression in E. coli” value is listed as “not soluble”.

“MQFWRKQMSEIQHFSQQDIEILGEQTLYEGFFTLKRIQFKHKLFAGGQSGVVTRELLIKGAASAVIAYDPKEDSVILVEQVRIGAAYHPESHRSPWLLELIAGMVEKGEKPEDVALRESEEEAGIQVKNLTHCLSVWDSPGGIVERIHLFAGEVDSAQAKGIHGLAEENEDIKVHVVKREQAYQWMCEGKIDNGIAVIGLQWLQLNYAQLQQSWKRS”: the “soluble on expression in E. coli” value is reported as “not soluble”.

For “MQGPPRFGRLGGGAARRAARAQAPLYQEQPNYRDLVELAAEQARQAAAAPPPQLVPMLRDPIPIRFHRRDELLDRFGMDLGVAHRQELPNERIELAEARDQLAEQQRRALEAQRDQLARHNALADDLRARRERIVQEARAHARRADARDARLEAAAAADRRERFLQEAQEADARRAADGDARAELGEQLRALEAAVAGLPEAQAPQLRDRRARFVARLRARRAADAQAGALANEQRALEARLEGDFADLRAAEGRLLHPPPPQVCEFFFFAHFLLKMRKNLENLSQKLRFEVENWKIPLKFEICEILWKNHENCSKKR”, the “soluble on expression in E. coli” value was “not soluble”.

For the sequence “MQHYLLDSNQRLNVSFSKDSVAAYYQCFNQPYRKEVPPLMCASLWPKFDLFKKYANSELILTKSAINQTQKIEVDTIYVGHLEDIECRQTRNITRYTMALTLTKNDQHVITVTQTFIKAMKLEHHHHHH”, the “soluble on expression in E. coli” value was “soluble”.

Take “MQIEKMKLSDLKAADYNPRVDLKPGMQEYEKLKQSILEFGFVDPPIYNIQTGNLVGGHQRVAVAKELGLFNEIEVSVVDLPLDKEKALNVALNKISGRWDEEKLSILLNELDDEAVNLTGFDTEEVDSLLASFNYEEDIEKPIIEDDFQVNEFIENHHEAKTKLGQLWKLGNHYLLCGDATKLSDVEKLLQGKKANLVVTDPPYNVAVKSDNKELNESGREKIMNDDMSDEEFDQFLMSVFQNYSNAMRDDSAIYVFHGSSYQREFENSMNAAGIVVRSQCIWVKNNATFGWSQYRWQHEPVFYAHKKKQAPSWYGDRKQTTIWQDDLLEDLPATIWKVPRDDVATYYHPTQKPLSLIAIPVRNSSKRQDIVLDLFGGSGSTLMTCEQLNRICYTLELDPLFCDVIIERFEKSTGIIAELVE”: the “soluble on expression in E. coli” value was “not soluble”.

With “MQILKVIGLLMEYPDELLWECKEDALALIRRDAPMLTDFTHNLLNAPLLDKQAEWCEVFDRGRTTSLLLFEHVHAESRDRGQAMVDLLAEYEKVGLQLDCRELPDYLPLYLEYLSVLPDDQAKEGLLNVAPILALLGGRLKQREAPWYALFDALLQLAGSSLSSDSVTKQVNSEERDDTRQALDAVWEEEQVKFIEDNATACDSSPLNQYQRRFSQDVAPQYVDISAGGGK”, the “soluble on expression in E. coli” value is recorded as “not soluble”.

As for “MQITTVNVNGIRAAVKQRSDANRGMLPWLEQCGSDVVLLQEVRASEKDSLTALAPALDAGWHYVGAPAAAKGRAGVGILSRQPLRDVQVGLEGFVDSGRYIQATLSDPDTGHDVVVASLYLPSGSADTDKQDEKYRFLDVFGPFLEQAAQDNPHMVVGGDWNICHRMQDLKNWKTNRKKSGFLPDERAFMDSVFGVFPDSESQVSDAGQWAGAVDYTSQQRRTPANDPKWFDVARRLAPEDAAYTWWTYRGQAFDTNAGWRIDYQAATSAMLERATRCWVDKAAAYDLRWSDHSPLTVVYS”, the “soluble on expression in E. coli” value is recorded as “soluble”.

Regarding “MQKFILSAFVVALVAADCALKCPDGYFSFKRAPSAKNSMTGLWCVKAILSDTLISPNQAKQVCEKDGSILTSFENLDERTKLATVLRDFLSAKKLDRGGMIVDGHRLKNCETDDRTVLNAEPCRNSSTGFTTDEKHTDNTFMWKSWADTEPGQSIFEKQIESCLQLAISQFKSRTELINDVFCNYVKHPQNEGAYDLWNYGAVCGRLPEWN”, the “soluble on expression in E. coli” value was “not soluble”.

“MQKIKSLMTRQGLKSPQESLSDLGAIESLRVPGKEEFRELREQPSDPQAEQELINSIEQVYFSVDSFDIVKYELEKLPPVLNLQELEAYRDKLKQQQAAVSKKVADLILEKQPAYVKELERVTSLQTGLQLAAVICTNGRRHLNIAKEGFTQASLGLLANQRKRQLLIGLLKSLRTIKTLQRTDVRLSEMLEEEDYPGAIQLCLECQKAASTFKHYSCISELNSKLQDTLEQIEEQLDVALSKICKNFDINHYTKVQQAYRLLGKTQTAMDQLHMHFTQAIHNTVFQVVLGYVELCAGNTDTKFQKLQYKDLCTVCSDLITIHISLL”: the “soluble on expression in E. coli” value is reported as “soluble”.
